From article doi:10.1101/2023.07.07.548106, “CXCL17 binds efficaciously to glycosaminoglycans with the potential to modulate chemokine signalling” (bioRxiv, 2023)

Molecular target: the molecule itself
Test: reducing SDS-PAGE and Western blot; serial dilutions of recombinant CXCL17 (24-119), 1.25-10 uM, on reducing 12% Bis-Tris SDS-PAGE, blotted with anti-CXCL17; bands of 14 kDa and 28 kDa read as monomer and dimer; 28 kDa species at 5 uM and above

B1: recombinant human CXCL17 (24-119) (natural protein, UniProt Q6UXB2 24-119, looked up)
chain: LNPGVARGHRDRGQASRRWLQEGGQECECKDWFLRAPRRKFMTVSGLPKKQCPCDHFKGNVKKTRHQRHHRKPNKHSRACQQFLKQCQLRSFALPL
notes: human CXCL17, residues Leu24-Leu119 of the 119-residue precursor (Q6UXB2), without the predicted signal peptide; the commercially available form; also called Leu24-Leu119 form of CXCL17; source: bought: R&D Systems; produced in E. coli
ratio of monomer:dimer: 3 monomer:dimer
stoichiometry N: 2
